Consider one molecule from PMC9106845 (2022).

In the experiment the target is T1, A02_YLQ peptide on HLA-A*02:01 (human).
T1 peptide: YLQPRTFLL
Description: multimer staining.

B1: 839 (TCR)
alpha TRAV12-1 TRAJ47 CDR3: CVVNRADKLVF
beta TRBV7-9 TRBJ2-2 CDR3: CASSDANTGELFF
For the molecule B1, the binding result is on record as “recognises”.
